Laboratory results taken from the nanobody polyreactivity screen of Harvey et al. (2022).

Assay: yeast display, Sf9 membrane polyspecificity reagent, FACS + sequencing; frameworks hold sequencing errors
How it was run: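 Polyreactivity labels are assigned by the sorting gate from which each nanobody was recovered. The gates were low and high (top ~1%), set on anti-HA fluorescence for expression and streptavidin fluorescence for reagent binding. Before sorting, galactose-induced (36–48 hours) yeast display cells were stained for 1 hour at 4 °C with 10% biotinylated, detergent-solubilized Sf9 membrane reagent.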

| Sequence | polyreactivity (PSR sort gate) |
| --- | --- |
| QVQLVESGGGLVQAGGSLRLSCAPSGSTFTHNALGWYRQAPGKERELVAAINNRGGTTYYADSVKGRFTISRDNAKNTVLLQMNSLKPEDIAVYYCNARYHYGRYGYWGQGTQVTVSS | high polyreactivity |
| QVQLVESGGGLVQAGGSLRLSCAASGLIFDYYGMGWYRQAPGKEREFVAAINRSGGTTYYADSVKGRFTISRDNAKNTVYLQMNSLKPEDTAVYYCNADRGPAKLVYDPVIMDYWGQGTQVTVSS | low polyreactivity |
| QVQLVESGGGLVQAGGSLRLSCAASGRTFRRNTMGWYRQAPGKERELVAAISNRGTSTYYADSVKGRFTFSRDNAKNTVYLQMNSLKPEDTAVYYCAAREKYISYSYYYWGQGTQVTVSS | high polyreactivity |
| QVQLVESGGGLVQAGGSLRLSCAASGFTFNFNAMGWYRQAPGKERELVAAIRWSGGNTYYADSVKGRFTISRDNAKNTVYLQMNSLKPEDTAVYYCNRVGYQSMNYWGQGTQVTVSS | low polyreactivity |
| QVQLVESGGGLVQAGGSLRLSCAASGFTIYHNAMGWYRQAPGKERELVAAISSSGDSTYYADSVKGRFTISRDNAKNTVYLQMNSLKPEDTAVYYCNDYFYYLSLYYYYWFNYDYWGQGTQVTVSS | low polyreactivity |
| QVQLVESGGGLVQAGGSLRLSCAASGITFTSYAMGWYRQAPGKERELVAAISSSGVRTYYADSVKGRFTISRDNAKNTVYLQMNSLKPEDTAVYYCATRRRVLYGYDYWGQGTQVTVSS | high polyreactivity |
| QVQLVESGGCLVQAGGSLRLSCAASGRTSDGYAMGWYRQAPGKERELVAGITEGGGDTYYADSVKGRFTISRDNAKITDYLQMNSLKPEDTAVYYCNAGEGSRLPYDYWGQGTQVTVSS | low polyreactivity |
| QVQLVESGGGLVQAGGSLRLTCAASGRTFSVNAMGWYRQAPGKEREFVAAIRTSGGSTSYADSVKVRFTISRDNAKYTVFLQMSSLKPEDTAVYYCAADYGGTSYVRGTVGRKYDYWGQGTQVTVSS | high polyreactivity |
| QVQLEESGGGLVQAGGSLRLSCAASGRTLKVYAMGWYRTAPGKERELVAAINNGGSTNYADSVKGRFTISRDNAKNTVFLQMNSLKPEDTAVYYFNAVYYARFRKYTYYYWGQGTQVTVSS | high polyreactivity |
| QVQLVESGGGLVQAGGSLRLSCAASGFTFLPYVMGWYRQAPGKERELVAGITRTGSTNYADSVKGRFTISRDNAKNTVYLQMNSLKPEDTAVYYCAARLKYWGDYYYWGQGTQVTVSS | low polyreactivity |
| QVQLVESGGGLVQAGGSLRLSCAASGSTFVDNAMGWYRQAPGKEREFVAAIDWSGGSTFYADSVKGRFTISRDNAKNTVYLQMNSLKPEDTAVYYCAAYPQAYIADYDYWGQGTQVTVSS | low polyreactivity |
| QVQLVESGGGLVQAGGSLRLSCAASGSTFSTYAMGWYRQAPGKERELVARITVSVGSTYYADSVKGRFTMSRDNAKNTVYLQMNSLKPEDTAVYYCAVGSDEVYFVGDYEYWGQGTQVTVSS | low polyreactivity |
| QVQLVESGGGLVQAGGSLRLSCAASGRTFGQNAMGWYRQAPGKERELVAAISSGGSTYYADSVKGRFTISRDNAKNTVYLQMNSLKPEDTAVYYCAVSSWDRGYWYYYWGQGTQVTVSS | high polyreactivity |
| QVQLVESVGGLVQAGGSLRLSCAPSGSTFYGYAMGWYRQAPGKESELVAAITWGGASTYYADSVKGRFTISRDNAKNTVYLQMNSLKPEDTAVYYCATVGWGYQPYPFGMDYWGQGTQVTVSS | low polyreactivity |
| QVQLVESGGGLVQAGGSLRLSCAASGSTLASYAMGWYKQAPGKERELVAAISRGGGSTFYADSVKGRFTISRDNAKNTVYLQMNSLKPEDTAVYYCAAFGRYYYIYDYWGQGTQVTVSS | high polyreactivity |
| QVQLVESGVGLVQAGGSLRLSCAASGRTFDYNAMGWYIQAPGKERELVAAITSSGGSTYYADSVKGRFTISRDNAKNTVYLQMNSLKPEDTAVYYCDTDGQSPYYIYYWGQGTQVTVSS | low polyreactivity |

| Sequence | polyreactivity (PSR sort gate) |
| --- | --- |
| QVQLVESGGGLVQAGGSLRLSCAASGSTFYGYAMGWYRQAPGKERELVAAITRSGGSTYYADSVKGRFTISRDNAKYTVYLQMNSLKPEDTEVYYCNKYGYKGGVGYDYWGQGTQVTVSS | high polyreactivity |
| QVQLVESGGGLVQAGGSLRLSCAASGYTFDGYAMGRYRQAPGKERELVAAINSGGGTYYADSVKGRFTISRDNAKNTVYLQMNSLKPEDTAVYYCAKYTYDYWGQGTQVTVSS | low polyreactivity |
| QVQLVESGGGLVQAGGSLRLSCAASGSIFYHYAMGWYRQAPGKERELVAGITSSGDRTHYADSVKGRFTISRDNAKNTVYLQMNSLKPEDTAVYYCNTATIHGTAYDYWGQGTQVTVSS | low polyreactivity |
| QVQLVESGGGLVQAGGSLRLSCAASGITFGVNTMGWYRQAPGKERELVAAITWRGGSTYYADSVKGRFTISRDNAKNTVYLQMNSLKPEDTAVYYCAAVDFTREISGVTYGFDYCGQGTQVTVSS | low polyreactivity |
| QVQLVESGGGLVQAGGSLRLSCAASGSTFTVYAMGWYRLAPGKERELVAAISGSGGRTYYADSVKGRFTISRDNAKNTVYLQMNSLKPEDTAVYYCIARWGYRRGYWGQGTQVTVSS | high polyreactivity |
| QVQLVESGGGLVQAGGSLRLSCAASGSIFGLNAMGWYRQAPGKERELVAAISVSGTRTYYADSVKGRFTISRDNAKNTGYLQMNSLKPEDTAVYYCAAYSYSSSFGYRYDYWGQGTQVTVSS | high polyreactivity |
| QVQLVESGGGLVQAGGSLRLSCAASGSIFFSYAMGWYRQAPGKEREGGSTDYADSVKGRFTISRDNAKNTVYLQMNSLKPEDTAVYYCAASVRGIRYDYWGQGTQVTVSS | low polyreactivity |
| QVQLVESGGGLVQAGGSLRLSCAASGSTFDAYAMGWYRQAPGKERELVAAITWSGGSTYYADSVKGRFTISRDNAKNTVYLQMNSLKPEDTAVYYCAAYYLIFYFEFDYWGQGTQVTVSS | low polyreactivity |
| QFQLVESWGGLVPPGGILRLSCAASRSTFRYYPIGRYRQAPGHERELVAVISSSGSRTNYADSVKGRFTISRDTAKNTVYLQLNSLKPEDSAVYYCGAVSSYRYYADYYWGQGTQVTVSS | high polyreactivity |
| QVQLVESGGGLVQAGGSLRLSCAASGSTLYPYDMGWYRQAPGTERELVAAIDSGGSTNYADSVKGRFTISRDNAKNTVYLQMNSLKPEDTAVYFFAADASGENDYWGQGTQVTVSS | low polyreactivity |
| QVQLVESGGGLVQAGGSLRLSCAASGSIFYRYAMGWYRQAPGKERELVATIRSGGSTNYADSVKGRFTISRDNAKNTVYLQMKSLKPEDTAVYYCAAVTPETQPDSGPVPPMDSWGQGTQVTVSS | low polyreactivity |
| QVQLVESGGGLVQAGGSLRLSCAASGFIFRSYAMGWYRQAPGKERELVAANSSSGGRTYYADSVKGRFTISRDNAKNTVYLQMNSLKPEDTAVYYCATSLYTDNSWDNYWGQGTQVTVSS | high polyreactivity |
| QVQLVESVGGLVQAGGSLRLSCAASGRTFFPYAMGWYRQAPGKEREFVAAITKTDDSTYYADSVKGRFTISRDNAKNTVYLQMNSLKPEDTAVYYCNAGDTQIRFYYWGQGTQVTVSS | low polyreactivity |
| QVQLVESGGGLVQAGGSLRLSCAASGRIFYLYAMGWYRQAPGKERELVAAITNSDTSTYYADSVKGRFTISRDNAKNTVYLQMNSLKPEDTAVYYCAVSTQYYYFDYYYWGQGTQVTVSS | high polyreactivity |
| QVQLVESGGGLVQAGGSLRLSCAASGFIFYAYDMGWYRQAPGKERELVAAISRVGSTYYADSVKGRFTISRDNAKNTVYLQMNSLKPEDTAVYYCATKFGTTRGFGYWGQGTQVTVSS | high polyreactivity |
| QVQLVESGGGLVQAGGSLRLSCAASGRTFWIYAMGWYRQAPGKERELVAGISRSGGSTNYADSVKGRFTISRDNAKNTVYLQMNSLKPEDTAVYYCNTDPYSSAWYNYDYWGQGTQVTVSS | low polyreactivity |
